# The nanobody polyreactivity screen of Harvey et al. (2022)
# Assay: yeast display, Sf9 membrane polyspecificity reagent, FACS + sequencing; frameworks hold sequencing errors
# Summary of the method: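 A synthetic nanobody library was expressed on Saccharomyces cerevisiae BJ5465 by galactose induction for 36–48 hours. The library was stained for 1 hour at 4 °C with 10% biotinylated, detergent-solubilized Sf9 membrane reagent and enriched with streptavidin microbeads before FACS. Low and high (top ~1%) gates were set on anti-HA fluorescence for expression and streptavidin fluorescence for reagent binding, and each polyreactivity label reflects the gate of origin.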
row,Sequence,polyreactivity (PSR sort gate)
1,QVQLVESGGCLVQAGGSLRLSCAASGSIFGGNAMGWSRQAPGKEREFVAAITVSDGSTYYADSVKGRFTISRDNAKKTVYLQMNSLKPEDTAVYYCAAGGFYYPHYDYWGQGTQVTVSS,low polyreactivity
2,QVQLVESGGCLVQAGGSLRLSCAASGSIFQPYAMGWYRQEPGKEREIVAAISQSGTSTYYADSVNGRFTISRDNAKNTVYLQMNSLKPEVTAVYYCAAQCWHLDSQWQLYNYFYWGQGTQVTVSS,high polyreactivity
3,QVQLVESGGCLVQAGGSLRLSCAASGSIFYWYAMGWFRQAPGKARELVAAITWSGVSTYYADSVKGRFTISRDNAKNTVDLQMNSLKREDTAVYYCAALVFGYSVFPYSYWGQGTQVTVSS,high polyreactivity
4,QVQLVESGGCLVQAGGSLRLSCAASGSIIWYYAMGWYRQAPGKERELVAAISTGGSTYYADSVKGRFTISRDNAKNTVYLQMNSLKPEDTAVYYCAAGAFGQILNYWGQGTQVTVSS,high polyreactivity
5,QVQLVESGGCLVQAGGSLRLSCAASGSTFAEYVMGWDRQAPGKERELVAAISSGTSTYYADSVKGRFTISRDNAKNTVYLQMNSLKPEDTAVYYCNADLYHNWYKPEYDYCGQGTQVTVSS,low polyreactivity
6,QVQLVESGGCLVQAGGSLRLSCAASGSTFGGNAMGWYRQAPGKERELVAAITIGGRTNYADSVKGRFTISRDNAKNTVYLQMNSLKPEDTAVYYCAKDRDQWQDYWGQGSQVTVSS,low polyreactivity
7,QVQLVESGGCLVQAGGSLRLSCAASGSTFIINAMGWYIQAPGKERVLVAANTSTGGTNYADSVKGRFTISRDNAKNTVYLQMNSLKPEATAVYYCAARYYQDGYDYWGQGTQGTVSS,high polyreactivity
8,QVQLVESGGCLVQAGGSLRLSCAASGSTFKIYAMGWYRQAPWKERELVAAISWRGGRTYYADSVKGRFTISRDNAKNTVYLQMNSLKPEDTAVYYCDKGTRQGLEFWGQGTQVTVSS,high polyreactivity
9,QVQLVESGGCLVQAGGSLRLSCAASGSTFLKYTMGWYRQAPGKERELVAAITASGGRTYYADSVKGRFTISRDNAKITVYLQMNSLKPEDTAVYYCAARGFDRYYWGQGTQVTVSS,high polyreactivity
10,QVQLVESGGCLVQAGGSLRLSCAASGSTFLSYAMGWYRQAPGKERELVAAISYSAGSTYYADSVKGRFTISRDNAKNTVYLQMNSLKPEDTAVYYCAAYDYSERRYDYWGQGTQVTVSS,low polyreactivity
11,QVQLVESGGCLVQAGGSLRLSCAASGSTFPVYSMGWYRQAPGKERELVAAISYSGGSTNYADSVKGRFTISRDNAKNTVYLQMNSLKPEDTAVYYFAADTESHHEGNYWGQGTQVTVSS,low polyreactivity
12,QVQLVESGGCLVQAGGSLRLSCAASGSTFSRYAMGWYRQAPGKERELVAAISWGGNTYYADSVKGRFTISRDNAKNTVYLQMNSLKPEDTAGYYCNADYSSRGANYDYWGQGTQVTVSS,high polyreactivity
13,QVQLVESGGCLVQAGGSLRLSCAASGSTFTIYVMGGYRQAPGKERELVAAITWSDGITYYADSVKGRFTISRDNAKNTVYLQMNSLKPEDTAVYYCRDSHPSYRPGTVRYDYWGQGTQVNVSS,low polyreactivity
14,QVQLVESGGCLVQAGGSLRLSCAASGSTFTYNAMGGYRQAPGKERELVAGISWRGGRTYYADSVKGRFTISRDTAKNTVYLQMNSLKPEDTAVYYCNARLWGTHYEYARMYYWGQGTQVTVSS,low polyreactivity
15,QVQLVESGGCLVQAGGSLRLSCAASGSTFTYNAMGWYRQAPGKERELVAAISRTANANYADSVKGRFTISRDNAKNTVYLQMNSLKPEDTAVYYCADDFLDSKVHVRFGYWGKGTQVTVSS,low polyreactivity
16,QVQLVESGGCLVQAGGSLRLSCAASGSTFWWNTMGWYRQAPGKERELVADIRTSGGGTYYADSVKGRFTISRDNAKNTVYLQMNSLKPEDTAVYYCNADPKWEMGSWGQGTQVTVSS,low polyreactivity
17,QVQLVESGGCLVQAGGSLRLSCAASGSTINSYAMGCYRQAPGKERELVAAITWIGGNTYYADSVKGRFTISRDNSKNTVYLQMTSLKPEDTAVYYCGADEYFEYYYWGQGTQVTVSS,low polyreactivity
